One molecule from publication PMC11063897, “Structural analysis of the SAM domain of the Arabidopsis mitochondrial tRNA import receptor” can be followed below.

What all share (test): EMSA; 160 uM protein, 120 nM RNA; 15 mM Tris-HCl pH 7.0, 150 mM NaCl, 10% glycerol, 2 U/ul RNase inhibitor, 22 C, 15 min; 6% native TBE PAGE in 0.5x TBE
Settings in all cases: protein: recombinant; tags: N-terminal His6, thrombin site; label: 5'-6-FAM
On the technique in general: In EMSA bound probe runs differently from free probe, usually more slowly.

The target of data set [1] is T1, Tric1 SAM domain Gly241Glu (Arabidopsis thaliana, UniProt Q9SCK3, G241E).
T1 sequence: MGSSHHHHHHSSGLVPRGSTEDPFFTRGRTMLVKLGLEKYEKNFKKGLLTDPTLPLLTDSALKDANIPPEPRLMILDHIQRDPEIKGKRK

The target in data set [2] is T2, Tric1 SAM domain Asp235Ala (Arabidopsis thaliana, UniProt Q9SCK3, D235A).
T2 sequence: T1 sequence with D64A, E70G

For data set [3], the target named is T3, Tric1 SAM domain Asp235Ala:Gly241Glu (Arabidopsis thaliana, UniProt Q9SCK3, D235A;G241E).
T3 sequence: T1 sequence with D64A

The next data set concerns the target T4, Tric1 SAM domain WT (Arabidopsis thaliana, UniProt Q9SCK3).
T4 sequence: T1 sequence with E70G

Positions count from the first letter of the chain named.

B1: tRNAala T-arm (structured_RNA)
RNA: UCGCUUUGCAUGCGA
B1: the binding result is listed as “no binding” in data set [1], “no binding” in data set [2], “no binding” in data set [3] and “binds” in the data set with Tric1 SAM domain WT.
